In the DeepSol protein solubility set:

test: soluble on expression in E. coli; label from the status in PepcDB or PDB records

Sequence | soluble on expression in E. coli
MSVLGFDIGNLNCYIGVARQGGIEVITNDYSLHATPACVSFGPKDRSMGVAARQAVTTNIKNTVINFKHLIGRKFSDPVAQRFIPFIPCKVVKLPNDDIGVQVSYLGEPHTFTPEQVLAALLTKLRTIVESQLSDVKKVSDCVLAVPSYFTDVQRRAVLSAIQYAGLNSLRIVNETTAIALAYGIYKQDLPEEDAKSRNVVFLDIGHSSTQASLVAFNRGKLQMVNTSYDLESGGIWFDALIREHFRKEFKTKYGIDAATSPRPWLRLLDECERVKKQMSANQTPIPLNIECFMEDKDVTGKMQRQEFEDLAAPIFNRIKQVLINLFADGVSIKPEEIDEIEIVGGSSRIPMIREIVKDLFGKEPKTTMNQDEAVARGAAMQCAILSPTFRVREFAIKDTQPYRIRLSWNSTGENGGENDVFSPRDEVPFSKLVSLLRSGPFNVEAHYAQPNVVPHNQVHIGSWKVNGARPGADGGNQKVKVKVRVNPDGIFTIASATMYEPRIVEEVPAEAMEVDGDAKTEAPAEPLEPVKKTKLVPVDLEVIESIPVSYDVQKFHNLELQMQESDAREKAKADAKNSLEEYVYEMRDKVSDQYAEFITPAAADEFRSVLTSTEDWLYDEGEDAERDVYEKRLSELKAVGTPVVERYRESETRKPAFDSFDQSIMRVRKAYEDYANGGPTYAHLDSKEMEKVINAIEDKKKWLDEARHKQETRSKTDAPVVFTEEILQNKNVFENVVNPILNKKKPAAPAPPKKEEPQPAAGDQPQSQPGEMDVD | not soluble
MGSDKIHHHHHHMVVNLEGKISKIGQNMKSSIIREILKFAADKDAISFGGGVPDPETFPRKELAEIAKEIIEKEYHYTLQYSTTEGDPVLKQQILKLLERMYGITGLDEDNLIFTVGSQQALDLIGKLFLDDESYCVLDDPAYLGAINAFRQYLANFVVVPLEDDGMDLNVLERKLSEFDKNGKIKQVKFIYVVSNFHNPAGVTTSLEKRKALVEIAEKYDLFIVEDDPYGALRYEGETVDPIFKIGGPERVVLLNTFSKVLAPGLRIGMVAGSKEFIRKIVQAKQSADLCSPAITHRLAARYLERYDLLEQLKPTIELYRRKRTVMLNALEEYFSDIPGVKWVKSEGGLFIWLTLPEGFDTWEMFEYAKRKKVFYVPGRVFKVYDEPSPSMRLSFCLPPDEKIVEGIKRLREVVLEYGKEKHLL | soluble
MSLDDQITNAAEKGVTDRFYGLIPNGYLFIENGLISAFGPMSALQENLTNSTAMSQIDDAIDAAGRLLTPALIDCHTHVVYGGHRALEFEMRLKGASYAEMAKAGGGIVSTVSATRSQSVEQLVQGALARVDALIAEGISLIEIKSGYGLDIETELRMLRAARSIEAARPVRVITSFLGAHAMPPGEDMSPEGYIEKTCIPALHQAHKEGLVDAVDGFCESIAFSADQIVPLFNVAAELGLPVKLHAEQLTRCGGSLLAASHKALSVDHVEYANKEDVRALAAAGCSAVLLPGAFYTLRETQKPPVALFRDQGVPMAIATDANPGSSPMTSLLLAMNMGCTLFGMTPYEALAGVTRNAARALGVSDSGMLRPGLRADLALWDVAHPAELAYRIGFNPLHRRIFGGQIAEGHHHHHH | soluble
MHPTYSAVQARLLEANRLSPELLAKSLCIIGAHHVDYADIYCQRTAYESWHLEEGIVKSGSFQINQGVGVRAVSGDKTAFAYADSLCIDSINRSARAVRAIGAAGGKVSAKMPSETRGKPVCSASDPIAGLDSAAKVALLNKVEAIAKAADPRIVQVMAGLTCEYDMVYLARLDGKHAADIRPMVRLNVTVIAKQGERREQGSAGGGGRYDLAYFDENLVHRFVDAAVKQALTNLESRPAPAGEMTVVLGNGWPGVLLHEAVGHGLEGDFNRKGTSVFSGRIGERVAAKGVTVVDQGDIAGRRGSLNIDDEGNETRRTVLIEDGILVGYMQDETNARLTGTQSTGNGRRESYASAPMPRMTNTFMENGSYEPEEIIASIDKGIYAVNFGGGQVDITSGKFVFSASEAWWVEGGRLQYPVKGATIIGNGPEVLKHVSMIGNDTALDSGVGVCGKEGQSVPVGVGQPTLRIDAGLTVGGSAI | not soluble
MLITERIYVLEDVDVQAFLGVNNSNLMLLRTLFPKLRLVAHHNVLKIMGDSRETDRFLEVLEPMVAYCREYNLLPEDVILRIAQGAKLPADDVPKHLILHGTGGKSIIARGDNQQKLVEAFEANDLVFAIGPAGTGKTFVAISLAVRALKSKQVRRIILSRPAVEAGEKLGFLPGEMKDKLDPYLQPLYDALEEMIPAVKLKEYIENNIIQIAPLAYMRGRTLNDAVVILDEAQNTTELQMKMFLTRLGANAKMIVTGDITQTDLPRGVHSGLRQALNILQGTRGIGYIAFQRADIVRHPLVQRVVDAYDRYDAERKKEAEAAAVVAQTI | not soluble
MSLVKNEEKLLEVINKYELNSIFSQEIMPFLELHMFKKNEHICFMNEELNYLYFFVHGKAKVYKTLPNGKSLLLEFYEPVQLIGDLELISKIKANCNVKALKSSLCIAIPIQAVNSIALKDLNFLMYITKNLSNKLAKCSVTSSITITYPLETKLASYLLAMNSNNIIMIDNYSNLADLLGTSYRHLNRVLNKLVEKGIILKDKNEIKILNKEELENICVDLNEGHHHHHH | soluble
MGSDKIHHHHHHMNRKLIQIDQLKNQLTQYRPLSESEVKRLREEFIIESSYNSNAIEGNTITLRETVLILKEGMTIAEKPLREHLDIIGFKDAFNYIYELVANNEPLSERTIKDIHSLVLMNNAEGRGVYRKIPVRILGAENEPTAPYLIAEEMQSLIEKYQQKLTALHPIEAISWLHLAFESIHPFIDGNGRTGRLLINFELLKHGYLPVDIKFTHRANYYQCFDDFHKNQQDISRLVELISRYELTELERYLAILEQRT | not soluble
KGMIRPRGLNQQRYVKEVLSNDINFGIGPAGTGKTYLAVACAVDALEREQIRRILLVRPAVEAGEKLGFLPGDLAQKIDPYLRPLYDALYEMLGFEYVAKLIEKQVIEVAPLAYMRGRTLNNSFIILDESQNTTVEQMKMFLTRIGFGSTAVITGDITQVDLPKGTRSGLTHVIDVLKDVPGISFTHFKPKDVVRHPLVQRIVEAYERFDDQLSDGPSGNNG | soluble
GMSTAAESEIRQLIERWMQAVRDRDIPGIIAPYADDIVAFDAIQALQFKGKSAYTAHWEMCMGMCTGPMVFELAQLTVHAAGDLALAHWLNRCGPGDDESQCGFMRATVGYRRQGGQWQVIHEHWSAPFDMETQKALFDLKP | soluble
MLPEKRLLTPDDMKLWEESPTRAHFTKFIIDLAESVKGHENSQYKEPISESINSMMNLLSQIKDITQKHPVIKDADSSRFGKVEFRDFYDEVSRNSRKILRSEFPSLTDEQLEQLSIYLDESWGNKRRIDYGSGHELNFMCLLYGLYSYGIFNLSNDSTNLVLKVFIEYLKIMRILETKYWLEPAGSHGVWGLDDYHFLPFLFGAFQLTTHKHLKPISIHNNELVEMFAHRYLYFGCIAFINKVKSSASLRWHSPMLDDISGVKTWSKVAEGMIKMYKAEVLSKLPIMQHFYFSEFLPCPDGVSPPRGHIHDGTDKDDECNFEGHVHTTWGDCCGIKLPSAIAATEMNKKHHKPIPFD | soluble
MSLVKIKEVAMNIKINEIKMTPPTAFTPGQVIEEQEVISPSMLALQELQETTGAALYETMEEIGMALSGKLRENYKFTDAEKLERRQQALLRLIKQIQEDNGATLRPLTEENSDPDLQNAYQIIALAMALTAGGLSKKKKRDLQSQLDTLTAEEGWELAVFSLLELGEVDTATLSSLKRFMQQAIDNDEMPLSQWFRRVADWPDRCERVRILLRAVAFELSICIEPSEQSRLAAALVRLRRLLLFLGLEKECQREEWICQLPPNTLLPLLLDIICERWLFSDWLLDRLTAIVSSSKMFNRLLQQLDAQFMLIPDNCFNDEDQREQILETLREVKINQVLFEGHHHHHH | soluble
MKLKLVDVETNPHEEEVGTCEFCMSVEMVNEPVFVFKKDIGELVRVKAFIWSWGFYDEENIENIVDFAAYVNEQEFDEEQELDYSWLTNLIYEYEYGKDC | not soluble
MTLDELNRLLDPQVLALIDAHASDDPATFAMQFHGRGDLPVRAIAEQIACRKKAAAKLPSLSRFPMLYTRL | not soluble
GSHMNTLKKAFEILDFIVKNPGDVSVSEIAEKFNMSVSNAYKYMVVLEEKGFVLRKKDKRYVPGYKLIEYGSFVLRRFNIRDIAHDHLVDIMKRTGETVHLILKDGFEGVYIDKVEGEQSIPMVSRLGMKVDLYSTASGKSILAFVPEKELKEYLKIVELKPKTPNTITNPRVLKRELEKIRKRGYAVDNEENEIGIMCVGVPIFDHNGYPVAGVSISGVARKFTEEKIEEYSDVLKEKAEEISRKLGY | soluble
MQKIALCITGASGVIYGIKLLQVLEELDFSVDLVISRNAKVVLKEEHSLTFEEVLKGLKNVRIHEENDFTSPLASGSRLVHYRGVYVVPCSTNTLSCIANGINKNLIHRVGEVALKERVPLVLLVREAPYNEIHLENMLKITRMGGVVVPASPAFYHKPQSIDDMINFVVGKLLDVLRIEHNLYKRWRG | soluble
MGSSHHHHHHSSGLVPRGSHMGSEGGPALFQSDMTFKIFIDGEVNGQKFTIVADGSSKFPHGDFNVHAVCETGKLPMSWKPICHLIQYGEPFFARYPDGISHFAQECFPEGLSIDRTVRFENDGTMTSHHTYELDDTCVVSRITVNCDGFQPDGPIMRDQLVDILPNETHMFPHGPNAVRQLAFIGFTTADGGLMMGHFDSKMTFNGSRAIEIPGPHFVTIITKQMRDTSDKRDHVCQREVAYAHSVPRITSAIGSDED | soluble
MSLARPLSFHEDRLFPSDPATRSYARGLYALVKDLPIISPHGHTDPSWFATNAPFQDATDLLLAPDHYLFRMLYSQGVSLDALKVRSKAGVPDTDPREAWRVFASHFYLFRGTPSWVWLNHVFSQVFGFTEFLEASNADDYFDRITAALATDAFRPRALFDRFNIETLATTEGPHESLQHHAAIRESGWGGHVITAYRPDAVIDFEDERSPRAFERFAETSGQDVYSWKSYLEAHRLRRQAFIDAGATSSDHGHPTAATADLSDVEAEALFNSLVKGDVTPEKAELFRAQMLTEMAKMSLDDGLVMQIHPGSHRNHNVGLLNSHGRDKGADIPMRTEYVDALKPLLTRLGNDPRLSIILFTLDETTYSRELAPLAGHYPVLKLGPSWWFHDSPEGMMRFREQVTETAGFYNTVGFNDDTRAFLSIPARHDVARRVDSAFLARMVAEHRMDLVEAEELIVDLTYNLPKKAYKLDQRPDWARPATLRAAAEEGHHHHHH | soluble
MGSDKIHHHHHHMNYKPEIAIIESNTLTCLGLKSILEEIIPMATIRTFHSFSELMDDTPDMYAHYFISAQIYVEHNAFFLPRKRKTIVLASDSPQFQLSGVPVLNIYEPEEKLVKSLLKLHQHAHHNGYPVKDMPPIAMPEVHQEILSAREIEVLVLITKGLINKEIADKLNISLTTVITHRKNITEKLGIKSVSGLTIYAVMNGYIEADRI | not soluble
MLKIISGKYRNQIIPTAKNIKYRPSTGKLKEAIFSILTSGEFTGNKLFNENTHILDLFAGSGSLAFESLSRGAGFATLIDIDTSSLKIAEGFAKSLNIENNVNFVNINALNLPKATRHLFKPAYREGSKGDTEHSTAAYTLVREDASTGSTFKLPLEAKFGKMSNKSFDLVFIDPPYHKNIVPKVMKLLIKNNWLKDGAIIVIEMAKTDDYILDENIEIIREKLYGKSKLLVLSFTVIPAKAGIQ | not soluble
MSLKSSFYYHRTMLGDKDKYADLKQRITALYHKHKGRYGYRRMTVALKHLGVHHNHKLIAKLMKQLTLSAKIRRQKYRSYKGQQGKIAKNYLKRRFKASKPHKRWLTDITEFKVGDHKLYLSPILDCYNNEIVSYTLSRRPTYDLVSQMLDKALDKTGKHRHKTLMLHSDQGWHYQMKPFREMLKKHQIKQSMSRKGNCLDNALMEGFFGTLKCETIYIEKPKTIEALERQIHEYIHYYNHERIQLKLKGLSPVQYRTQSLKEGHHHHHH | not soluble
MTRLAEILDQMSAVLNDLKTVMDQEQQHLSMGQINGSQLQWITEQKSSLLATLDYLEQLRRKEPNTANSVDISQRWQEITVKTQQLRQMNQHNGWLLEGQIERNQQALEMLKPHQEPTLYGANGQTSTTHRGGKKISILEHHHHHH | soluble
